Measured values published in the Human Domainome abundance scans (Beltran et al. 2025).

B1: Ras GTPase-activating protein 1, residues 281 to 341; numbered along this chain, P20936 (parent)
chain: RRRVRAILPYTKVPDTDEISFLKGDMFIVHNELEDGWMWVTNLRTDEQGLIVEDLVEEVGR

Variants of: B1
Test: abundance fitness (aPCA) (normalised: wild type 0, dead -1); higher = more abundant; growth selection in yeast, the domain comes from the species named
Details: Homo sapiens

Abundance fitness: each site, then its substitutions
E53: I -0.052; D -0.045; H -0.003; W -0.203; F -0.337; L -0.236; K 0.01; S 0.021; V -0.053; C -0.079; T 0.041; Q -0.034; G 0.03; R -0.019; A -0.027; P -0.031; Y -0.121
V52: N 0.015; F 0.009; D -0.121; T 0.023; M 0.031; E -0.123; C 0.024; S 0.013; W -0.047; G 0.059; P 0.04; L 0.041; A 0.072; R 0.043; K 0; H 0.029; I 0.022; Q 0.045
D54: P -0.175; C -0.042; F -0.262; Y -0.183; W -0.184; R 0.133; L -0.281; V -0.233; Q 0; K 0.037; H -0.225; T 0.016; N 0.013; E -0.069; I -0.338; S 0.058
Q48: K 0.015; R -0.051; I -0.084; W -0.32; S -0.022; M -0.107; P -0.503; Y -0.08; T 0.019
V56: M -0.23; Y -0.982; W -0.844; K -0.741; H -0.93; P -0.778; N -0.874; E -1.07; R -0.846; D -0.887; G -0.85; I -0.031; A -0.421; S -0.73; F -0.953; T -0.013; C -0.126; L -0.711
G49: A -0.926; I -0.874; C -0.784; Q -1.01; W -1.09; T -0.791; N -0.836; H -0.825; Y -0.936; E -0.766; L -0.847; P -0.846; S -0.979; D -0.836; R -1.04; V -0.949; F -0.754
E58: D -0.026; A -0.134; C -0.146
L50: P -0.504; I -0.03; G -0.613; F -0.126; S -0.07; A -0.002; E -0.395; V -0.043; M 0.004; H -0.426; D -0.958; R 0.142; W -0.07; K 0.131; N -0.828; Y -0.05; T -0.04
I51: G -0.761; Y -0.834; R -0.786; F -0.826; E -0.899; H -0.857; W -0.826; Q -1.07; T -0.784; A -0.481; D -0.814; L -0.157; P -0.912; K -1.09; C -0.401; V 0.023
E57: Q -0.083; I -0.223; C -0.168; M -0.346; P -0.848; S -0.252; W -0.921; H -0.224; T -0.117; Y -0.357; G -0.536; D -0.251; K -0.471; A -0.232; R -0.197; L -0.368; F -0.527; N -0.447; V -0.107
L55: W -0.165; Q -0.033; E -0.765; D -0.394; Y 0.034; M 0.005; P -0.925; R -0.034; V -0.175; F 0.015; S -0.018; N -0.02; H 0.059; I -0.241; K 0.027; A 0.032; G -0.348
